Test results as given in patent publication US20190202914A1.
Values belong to the binder of their own block, whether it stands above or below them.

Target: cynoCTLA-4-his protein (CT4-05227, AcroBio) (cyno) (UniProt G7PL88)
Test: SPR, Biacore T200, antibody immobilised, CTLA-4-his injected, 1:1 model

Kd: 0.0591 nM
koff: 0.000308 s⁻¹
kon: 5.21e+06 M⁻¹ s⁻¹
B1: CL5′-dPTM′ (antibody, human IgG1, V domains shown)
VH: EVQLVESGGGLIQPGGSLRLSCAVSGFTVSKNYMSWVRQAPGKGLEWVSVVYSGGSKTYADSVKGRFTISRDNSKNTLYLQMNSLRAEDTAVYYCARAVPHSPSSFDIWGQGTMVTVSS

Kd: 0.0243 nM
koff: 0.00011 s⁻¹
kon: 4.55e+06 M⁻¹ s⁻¹
B2: CL5′-eA-dPTM′ (antibody, human IgG1, V domains shown)
VH: B1 VH
